# Laboratory results as given in patent US20210015937A1 (CRESCENDO BIOLOGICS, published 2021).
# B1: VH1.1-6GS-VH1.1-His6 (VHH)
# chain: EVQLVESGGGVVRPGGSLRLSCSASGFTFDDYGMSWVRQAPGKGLEWVSGIHWNGGNSGYADSVKGRFTISRDNAKNSLYLQMNSLRAEDTALYYCARIPREDCSSASCYTDAIDFWGPGTMVTVSSGGGGSGGGGSGGGGSGGGGSGGGGSGGGGSEVQLVESGGGVVRPGGSLRLSCSASGFTFDDYGMSWVRQAPGKGLEWVSGIHWNGGNSGYADSVKGRFTISRDNAKNSLYLQMNSLRAEDTALYYCARIPREDCSSASCYTDAIDFWGPGTMVTVSSAAAHHHHHH
# notes: Tandem fusion of two VH 1.1, bivalent for LAG-3; The entry includes the C-terminal AAA-His6; also called 1.1-6GS-1.1; bivalent 1.1-6GS-1.1
# Columns and labels:
# [1] = biological target: T1, Rhesus monkey LAG-3 (used as cynomolgus LAG-3) (Rhesus monkey (called cynomolgus in the …)); experiment: ELISA, coated antigen, VH at 10 µg/ml, anti-HIS HRP
# T1 construct: extracellular domain
# Description: (§1) To screen specificity by ELISA, antigens were coated at 1-5 ug/ml and blocked with Marvel milk powder. VH were added at 10 μg/ml and incubated for 1 hour. After washing, HRP-conjugated anti-HIS antibody (Miltenyi cat no. 130-092-785) was added. TMB substrate and acidic solution were used to develop colorimetric signal.
# [2] = biological target: T2, human LAG-3 domains 1-2-Fc (human, UniProt P18627 23-261, limits assumed); experiment: as above
# T2 construct: Domains were identified as per Huard et al 1997 PNAS 94:5744-9; also called truncated LAG-3
# T2 sequence: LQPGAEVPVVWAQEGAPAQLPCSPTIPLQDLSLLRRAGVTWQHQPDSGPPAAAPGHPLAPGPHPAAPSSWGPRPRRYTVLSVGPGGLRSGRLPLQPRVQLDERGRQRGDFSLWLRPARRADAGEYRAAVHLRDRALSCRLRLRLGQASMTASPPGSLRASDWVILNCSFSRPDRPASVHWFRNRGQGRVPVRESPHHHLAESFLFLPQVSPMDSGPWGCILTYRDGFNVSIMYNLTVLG
# Description: as §1
# [3] = biological target: T3, recombinant human LAG-3-Fc (human, UniProt P18627 23-450); experiment: as above
# T3 construct: also called human LAG-3 (R&D Systems cat no. 2319-L3); LAG3 antigen
# T3 sequence: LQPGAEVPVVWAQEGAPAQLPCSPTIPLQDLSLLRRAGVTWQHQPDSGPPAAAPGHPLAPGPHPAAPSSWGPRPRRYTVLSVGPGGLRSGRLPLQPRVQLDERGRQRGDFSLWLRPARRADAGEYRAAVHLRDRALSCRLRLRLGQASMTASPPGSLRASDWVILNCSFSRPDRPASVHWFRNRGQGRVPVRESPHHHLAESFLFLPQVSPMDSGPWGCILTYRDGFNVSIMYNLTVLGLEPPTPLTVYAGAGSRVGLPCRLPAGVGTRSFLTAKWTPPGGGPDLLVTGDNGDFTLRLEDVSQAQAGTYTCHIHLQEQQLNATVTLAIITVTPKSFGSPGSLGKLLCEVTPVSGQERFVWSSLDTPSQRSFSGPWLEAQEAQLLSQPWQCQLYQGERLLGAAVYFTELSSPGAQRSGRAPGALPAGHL
# Description: as §1
# [4] = biological target: T4, human LAG-3 expressed on cells (human, UniProt P18627 23-525); experiment: cell-based or functional assay
# T4 sequence: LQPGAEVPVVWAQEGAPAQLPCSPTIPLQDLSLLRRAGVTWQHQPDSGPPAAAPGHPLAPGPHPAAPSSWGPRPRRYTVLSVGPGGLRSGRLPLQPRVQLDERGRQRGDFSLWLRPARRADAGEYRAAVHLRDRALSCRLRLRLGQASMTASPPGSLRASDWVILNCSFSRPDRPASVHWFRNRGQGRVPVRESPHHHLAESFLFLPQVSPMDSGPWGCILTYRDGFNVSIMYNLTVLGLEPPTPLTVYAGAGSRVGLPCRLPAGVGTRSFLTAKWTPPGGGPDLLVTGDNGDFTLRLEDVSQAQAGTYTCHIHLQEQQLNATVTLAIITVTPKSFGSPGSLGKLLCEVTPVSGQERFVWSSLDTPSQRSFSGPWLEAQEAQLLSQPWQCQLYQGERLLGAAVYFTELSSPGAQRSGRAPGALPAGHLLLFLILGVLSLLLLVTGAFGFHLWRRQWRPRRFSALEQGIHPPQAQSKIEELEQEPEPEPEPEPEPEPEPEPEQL
# [5] = biological target: T2, human LAG-3 domains 1-2-Fc; experiment: BLI (Octet); human LAG-3 domains 1-2-Fc captured on protein G biosensors, 1:1 fit
# Description: Binding kinetics for multi-valent and bispecific VH were also measured in real-time bio-layer interferometer based biosensor Octet (ForteBio). […] All the binding studies were performed in HBS-ET Octet kinetics buffer. Biosensors were washed in Octet kinetics buffer in between different steps. […] The contact time for each of the association steps was 150 seconds and the dissociation step was 400 seconds. […] To compare the constructs, kinetic association (kₐ) and dissociation (kd) rate constants were determined by processing and fitting the data to a 1:1 binding model using ForteBio Analysis software.
# [6] = biological target: T3, recombinant human LAG-3-Fc; experiment: competition ELISA; LAG-3-Fc pre-incubated with VH, binding to coated LSECtin
# From the text: The plate was blocked with 3% Marvel skimmed milk powder in PBS. […] Wash steps were done 3 times with PBS 0.05% Tween. Colour was developed using TMB and 0.5M sulphuric acid solution.
binder,measurement,setting,value
B1,ELISA signal over background,[1],> 10 fold over background
same,ELISA signal over background,[2],> 10 fold over background
same,ELISA signal over background,[3],> 10 fold over background
same,"EC50 (M), NFAT-Luciferase Reporter Gene assay (LAG-3:MHCII)",[4],4.1e-09 M
same,Kd,[5],0.811 nM
same,koff,[5],0.000522 s⁻¹
same,kon,[5],644000 M⁻¹ s⁻¹
same,IC50,[6],55 nM
